Data reported in patent publication US20110021367A1 (INDIAN INSTITUTE OF SCIENCE, published 2011).

T1: σ^L 1-177 (Mycobacterium tuberculosis sigma factor L, Rv0735), N-term His-tag (Mycobacterium tuberculosis, UniProt P9WGH5 1-177)
T1 construct: range 1-177; also called SigL; Mtb σ^L; not shown: N-terminal His-tag from pET-Duet1 MCS1
T1 sequence: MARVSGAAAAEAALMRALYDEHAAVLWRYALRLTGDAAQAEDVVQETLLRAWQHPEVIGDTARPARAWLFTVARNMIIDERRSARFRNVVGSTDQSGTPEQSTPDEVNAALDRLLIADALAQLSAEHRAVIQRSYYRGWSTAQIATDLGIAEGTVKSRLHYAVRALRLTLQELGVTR

B1: holo-RslA 1-108 (Zn2+ bound N-terminal cytosolic domain of M. tuberculosis anti-σ^L factor RslA), N-term His-tag (other)
chain: MTMPLRGLGPPDDTGVREVSTGDDHHYAMWDAAYVLGALSAADRREFEAHLAGCPECRGAVTELCGVPALLSQLDRDEVAAISESAPTVVASGLSPELLPSLLAAVHR
modifications: Zn2+ bound in 1:1 stoichiometry (holo, reduced; three free cysteines)
notes: range 1-108; Immobilized on a CM5 chip for SPR; Self-associates into dimers and tetramers in solution; also called Mtb RslA; Rsl1A 1-108; not shown: N-terminal His-tag from pET-Duet1 MCS1
B2: σ^L2 domain of M. tuberculosis σ^L (N-term His-tag σ^L 1-95) (other)
chain: MARVSGAAAAEAALMRALYDEHAAVLWRYALRLTGDAAQAEDVVQETLLRAWQHPEVIGDTARPARAWLFTVARNMIIDERRSARFRNVVGSTDQ
notes: range 1-95; not shown: N-terminal His-tag from pET-Duet1 MCS1

What was measured:
[1] = target: the molecule itself; assay: analytical gel filtration; dynamic light scattering
[2] = target: T1, σ^L 1-177 (Mycobacterium tuberculosis …); assay: SPR (BIACORE 2000), RslA immobilized on CM5 chip, σ^L as analyte
[3] = target: B1; assay: SPR (BIACORE 2000), RslA immobilized on CM5 chip, σ^L2 as analyte

B1 was tested, and the binding result [1] was “binds” and the Kd [2] was ~20 nM.

For B2, the Kd [3] was ~2000 nM and the “fold reduction in affinity against intact σ^L” value [3] was ~100 fold.
